Laboratory results published in patent US20230012428A1 (JIANGSU HENGRUI MEDICINE, published 2023).
Read-outs that look alike come from different tables or passages of the source.

Legend:
[1] = biological target: T1, Human CD47-his (CD47-ECD-His) (human, UniProt Q08722 19-139, limits assumed); experiment: ELISA, CD47-his coated on plate
T1 construct: also called hCD47; free human CD47 protein

Cyno CD47-his [2] = biological target: T2, Cyno CD47-his (cyno, UniProt A0A2K5X523 19-139); experiment: ELISA, CD47-his coated on plate
T2 construct: extracellular domain; not shown: His tag

hPD-L1-His [3] = biological target: T3, hPD-L1-His (human, UniProt Q9NZQ7 19-239); experiment: SPR (Biacore T200), binder captured on Protein A chip, antigen in flow
T3 construct: Bought; also called Human PD-L1-his; Human PD-L1; not shown: His tag

[4] = biological target: T1, Human CD47-his (CD47-ECD-His); experiment: as above
mPD-L1 [5] = biological target: T4, mPD-L1 (mouse, UniProt Q9EP73 19-238); experiment: as above
T4 construct: Bought; also called Mouse PD-L1-his; Mouse PD-L1

Cyno CD47-his [6] = biological target: T2, Cyno CD47-his; experiment: as above
Cyno PD-L1-His [7] = biological target: T5, Cyno PD-L1-His (cyno, UniProt G7PSE7 19-239); experiment: as above
T5 construct: Bought; not shown: His tag

[8] = biological target: T6, PD-L1-Fc (prepared in-house) (human, UniProt Q9NZQ7 19-238, limits assumed); experiment: blocking ELISA, PD-L1-Fc coated, competitor biotin-labeled B7-1
T6 construct: Prepared in-house; also called human PD-L1-Fc; not shown: Fc

[9] = biological target: T6, PD-L1-Fc (prepared in-house); experiment: blocking ELISA, PD-L1-Fc coated, competitor biotin-labeled PD-1
hPD-L1-His [10] = biological target: T3, hPD-L1-His; experiment: ELISA, PD-L1-his coated on plate
Cyno PD-L1-His [11] = biological target: T5, Cyno PD-L1-His; experiment: ELISA, PD-L1-his coated on plate
[12] = biological target: T7, CD47 extracellular domain and human IgG1Fc fusion protein (CD47-ECD-Fc) (human); experiment: blocking ELISA, CD47-Fc coated, competitor biotin-labeled SIRPα-his
T7 construct: also called CD47-Fc

[13] = biological target: T1, Human CD47-his (CD47-ECD-His); experiment: ELISA, CD47-his coated on plate; remark: listed apart in the source
Cyno CD47-his [14] = biological target: T2, Cyno CD47-his; experiment: ELISA, CD47-his coated on plate; remark: listed apart in the source
[15] = biological target: T8, natural CD47 on the surface of human red blood cells (human, UniProt Q08722 19-323); experiment: flow cytometry on human red blood cells, 10 µg/ml, Alexa 488 goat anti-human IgG secondary antibody, geometric mean
T8 construct: whole, on cells; also called CD47 on the surface of red blood cells

mPD-L1 [16] = biological target: T4, mPD-L1; experiment: ELISA, PD-L1-his coated on plate

EC50 [1] | EC50 (Cyno CD47-his [2]) | Kd (hPD-L1-His [3]) | Kd [4] | binding result (mPD-L1 [5]) | Kd (Cyno CD47-his [6]) | Kd (Cyno PD-L1-His [7]) | IC50 [8] | IC50 [9] | EC50 (hPD-L1-His [10]) | EC50 (Cyno PD-L1-His [11]) | IC50 [12] | EC50 [13] | EC50 (Cyno CD47-his [14]) | binding result [15] | Kd (mPD-L1 [5]) | EC50 (mPD-L1 [16]) | Binder
0.0469 µg/mL | 0.06 µg/mL | 0.0825 nM | 1.77 nM | no binding | 1.94 nM | 0.0891 nM | 0.16 µg/mL | 0.122 µg/mL | 0.0947 µg/mL | 0.237 µg/mL |  |  |  |  |  |  | h1831-19-S58 (bispecific antibody, human IgG4 S228P, kappa, Anti-PD-L1 IgG4 antibody h1831 with SIRPγ variant S58, GS19 linker; also called PD-L1-CD47 bifunctional fusion protein) heavy: not shown light: DIVLTQSPASLAVSPGQRATITCRASESVSIHGTHLMHWYQQKPGQPPKLLIYAASNLESGVPARFSGSGSGTDFTLTINPVEAEDTANYYCQQSFEDPLTFGQGTKLEIKRTVAAPSVFIFPPSDEQLKSGTASVVCLLNNFYPREAKVQWKVDNALQSGNSQESVTEQDSKDSTYSLSSTLTLSKADYEKHKVYACEVTHQGLSSPVTKSFNRGEC
 |  | 0.0874 nM | 3.83 nM | no binding | 4.63 nM | 0.121 nM | 0.113 µg/mL | 0.0723 µg/mL | 0.0976 µg/mL | 0.214 µg/mL |  |  |  |  |  |  | h1831-19-S79 (bispecific antibody, human IgG4 S228P, kappa, h1831 IgG4 with SIRPγ variant S79, GS19 linker; also called PD-L1-CD47 bifunctional fusion protein) heavy: not shown light: DIVLTQSPASLAVSPGQRATITCRASESVSIHGTHLMHWYQQKPGQPPKLLIYAASNLESGVPARFSGSGSGTDFTLTINPVEAEDTANYYCQQSFEDPLTFGQGTKLEIKRTVAAPSVFIFPPSDEQLKSGTASVVCLLNNFYPREAKVQWKVDNALQSGNSQESVTEQDSKDSTYSLSSTLTLSKADYEKHKVYACEVTHQGLSSPVTKSFNRGEC
 |  | 0.0529 nM | 1.16 nM | no binding | 1.39 nM | 0.0471 nM |  |  |  |  |  |  |  |  |  |  | h1831-19-S37 (bispecific antibody, human IgG4 S228P, kappa, h1831 IgG4 with SIRPγ variant S37, GS19 linker; also called PD-L1-CD47 bifunctional fusion protein) heavy: not shown light: DIVLTQSPASLAVSPGQRATITCRASESVSIHGTHLMHWYQQKPGQPPKLLIYAASNLESGVPARFSGSGSGTDFTLTINPVEAEDTANYYCQQSFEDPLTFGQGTKLEIKRTVAAPSVFIFPPSDEQLKSGTASVVCLLNNFYPREAKVQWKVDNALQSGNSQESVTEQDSKDSTYSLSSTLTLSKADYEKHKVYACEVTHQGLSSPVTKSFNRGEC
 |  | 0.0563 nM | 1.25 nM | no binding | 1.48 nM | 0.0493 nM |  |  | 0.046 µg/mL | 0.0972 µg/mL | 0.252 µg/mL | 0.0609 µg/mL | 0.033 µg/mL |  |  |  | h1831K-19-S37 (bispecific antibody, human IgG4 S228P, kappa, h1831K IgG4 (h1831 with light chain N53K) with SIRPγ variant S37, GS19 linker; also called h831K-19-S37; PD-L1-CD47 bifunctional fusion protein) heavy: not shown light: DIVLTQSPASLAVSPGQRATITCRASESVSIHGTHLMHWYQQKPGQPPKLLIYAASKLESGVPARFSGSGSGTDFTLTINPVEAEDTANYYCQQSFEDPLTFGQGTKLEIKRTVAAPSVFIFPPSDEQLKSGTASVVCLLNNFYPREAKVQWKVDNALQSGNSQESVTEQDSKDSTYSLSSTLTLSKADYEKHKVYACEVTHQGLSSPVTKSFNRGEC
 |  | 0.0806 nM |  | no binding |  | 0.0919 nM | 0.0494 µg/mL | 0.0266 µg/mL | 0.129 µg/mL | 0.222 µg/mL |  |  |  | no binding (tested: 10 µg/ml) |  |  | PD-L1 antibody h1831 (antibody, human IgG4 S228P, kappa, V domains shown) VH: QVQLVQSGAEVKKPGASVKVSCKASGYTFTSYWMHWVRQAPGQGLEWMGRITPSSGFAMYNEKFKNRVTMTRDTSTSTVYMELSSLRSEDTAVYYCARGGSSYDYFDYWGQGTTVTVSS VL: DIVLTQSPASLAVSPGQRATITCRASESVSIHGTHLMHWYQQKPGQPPKLLIYAASNLESGVPARFSGSGSGTDFTLTINPVEAEDTANYYCQQSFEDPLTFGQGTKLEIKR
 |  | 0.144 nM |  |  |  | 0.151 nM | 0.0307 µg/mL | 0.032 µg/mL | 0.163 µg/mL | 0.196 µg/mL |  |  |  |  |  |  | HRP00052 (antibody, V domains shown) VH: QVQLVQSGAEVKKPGASVKVSCKASGYTFTSYWMHWVRQAPGQGLEWMGRIGPNSGFTSYNEKFKNRVTMTRDTSTSTVYMELSSLRSEDTAVYYCARGGSSYDYFDYWGQGTTVTVSS VL: DIVLTQSPASLAVSPGQRATITCRASESVSIHGTHLMHWYQQKPGQPPKLLIYAASNLESGVPARFSGSGSGTDFTLTINPVEAEDTANYYCQQSFEDPLTFGQGTKLEIKR
 |  |  |  |  |  |  |  |  |  |  | 0.263 µg/mL |  |  |  |  |  | Anti-CD47 antibody hu5F9 (antibody, human IgG4 S228P, kappa, V domains shown, Control antibody) VH: QVQLVQSGAEVKKPGASVKVSCKASGYTFTNYNMHWVRQAPGQRLEWMGTIYPGNDDTSYNQKFKDRVTITADTSASTAYMELSSLRSEDTAVYYCARGGYRAMDYWGQGTLVTVSS VL: DIVMTQSPLSLPVTPGEPASISCRSSQSIVYSNGNTYLGWYLQKPGQSPQLLIYKVSNRFSGVPDRFSGSGSGTDFTLKISRVEAEDVGVYYCFQGSHVPYTFGQGTKLEIKR
 |  | 0.466 nM |  |  |  | 0.498 nM | 0.0752 µg/mL | 0.035 µg/mL | 0.131 µg/mL | 0.23 µg/mL |  |  |  | no binding (tested: 10 µg/ml) | 97.5 nM | 0.0289 µg/mL | Anti PD-L1 IgG4 antibody h1830 (antibody, V domains shown, also called PD-L1 monoclonal antibody h1830) VH: QVQLQESGPGLVKPSQTLSLTCTVSGGSISDGSAYWSWIRQHPGKGLEYIGFISRAGSTYNTPSLKGRVTISRDTSKNQFSLKLSSVTAADTAVYYCARSGGWLAPFDYWGRGTLVTVSS VL: DIVMTQSPDSLAVSLGERATINCKSSQSLFYHSNQKHSLAWYQQKPGQPPKLLIYGASTRESGVPDRFSGSGSGTDFTLTISSLQAEDVAVYYCQQYYGYPYTFGGGTKVEIKR
0.0703 µg/mL | 0.0317 µg/mL |  | 0.653 nM |  | 1.09 nM |  |  |  |  |  |  |  |  |  |  |  | Anti-CD47 antibody Hu167-IgG4 AA (antibody, V domains shown, Control antibody, prepared according to WO2018095428A1; also called Hul67 IgG4AA) VH: QVQLVQSGAEVKKPGASVKVSCKASGYTFTSYWMHWVRQAPGQGLEWMGNIDPSDSETHYNQKFKDRVTMTRDTSISTAYMELSRLRSDDTAVYYCARWGYLGRSAMDYWGQGTTVTVSS VL: DVQITQSPSSLSASVGDRVTITCRTSKSISKFLAWYQQKPGKAPKLLIYSGSTLQSGVPSRFSGSGSGTDFTLTISSLQPEDFATYYCQQHNEYPWTFGGGTKVEIKR
